In test [1] the target is T1, FcγRIa extracellular domain with C-terminal His tag (human, UniProt P12314 16-292).
T1 construct: extracellular domain; Soluble receptor used as analyte in Biacore; also called FcgRI; FcgRIa
Description: SPR Biacore, antibody captured on antigen-peptide chip, FcγR as analyte. A general note: In SPR one partner is held on a chip, and binding of the other changes the refractive index at the surface.

The target of test [2] is T2, FcγRIIb extracellular domain with C-terminal His tag (human, UniProt P31994 43-217).
T2 construct: extracellular domain; Soluble receptor used as analyte in Biacore; also called FcgRIIb; CD32B
T2 sequence (looked up): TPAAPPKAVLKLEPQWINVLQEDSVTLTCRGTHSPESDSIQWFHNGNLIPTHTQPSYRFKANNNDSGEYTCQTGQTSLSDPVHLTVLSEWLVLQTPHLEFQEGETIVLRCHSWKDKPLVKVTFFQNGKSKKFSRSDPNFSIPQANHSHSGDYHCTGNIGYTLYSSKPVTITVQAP
Described as above.

Test [3] has as its target T3, FcγRIIa H (FcgRIIa type H, His at position 131), extracellular domain with C-terminal His tag (human, UniProt P12318 34-217).
T3 construct: extracellular domain; also called 2aH; FcgRIIa H; not shown: His tag at the C terminus
T3 sequence (looked up): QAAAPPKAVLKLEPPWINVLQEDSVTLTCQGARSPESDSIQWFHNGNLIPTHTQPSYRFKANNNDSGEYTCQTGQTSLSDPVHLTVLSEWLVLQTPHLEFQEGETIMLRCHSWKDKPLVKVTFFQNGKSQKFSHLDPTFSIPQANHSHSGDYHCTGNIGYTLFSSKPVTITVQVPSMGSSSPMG
The test is described as follows: SPR; He/Con_2aH divided by He/Con_2b (FcγRIIa H binding over FcγRIIb binding).

The target in test [4] is T4, FcγRIIb, extracellular domain with C-terminal His tag (human, UniProt P31994 43-217).
T4 construct: extracellular domain; also called 2b; FcgRIIb; not shown: His tag at the C terminus
T4 sequence (looked up): T2 sequence (looked up)
Description: SPR (Biacore), relative binding, GpH7-A5/GpH7-B3/GpL16-k0 = 100.

Test [5] has as its target T3, FcγRIIa H (FcgRIIa type H, His at …). Described as above.

T1 sequence (P12314 16-292): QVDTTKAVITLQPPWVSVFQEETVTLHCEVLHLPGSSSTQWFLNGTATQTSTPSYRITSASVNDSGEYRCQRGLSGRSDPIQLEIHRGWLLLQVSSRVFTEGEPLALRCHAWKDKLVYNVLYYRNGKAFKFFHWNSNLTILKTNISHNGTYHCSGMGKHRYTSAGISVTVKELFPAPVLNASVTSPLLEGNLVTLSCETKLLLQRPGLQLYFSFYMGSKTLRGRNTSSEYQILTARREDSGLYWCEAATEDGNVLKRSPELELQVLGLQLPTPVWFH

B1: GpH7-A5/GpH7-B3 variant E269_01G/GpL16-k0 (antibody, human IgG1, kappa)
heavy 1: not shown
heavy 2: not shown
light: DIVMTQSPLSLPVTPGEPASISCQASESLVHSNRNTYLHWYLQKPGQSPQLLIYKVSNRFSGVPDRFSGSGSGTDFTLKISRVEAEDVGVYYCSQNTHVPPTFGQGTKVEIERTVAAPSVFIFPPSDEQLKSGTASVVCLLNNFYPREAKVQWKVDNALQSGNSQESVTEQDSKDSTYSLSSTLTLSKADYEKHKVYACEVTHQGLSSPVTKSFNRGEC
notes: Heterodimerized anti-glypican-3 IgG1; mutation in the GpH7-B3 chain only; also called He Ab E269G
Consider B1, for which the He/Con_1a in test [1] was 104 relative, GpH7-A5/GpH7-B3/GpL16-k0 = 100. Moreover, in test [2], the He/Con_2b was 51.5 relative, GpH7-A5/GpH7-B3/GpL16-k0 = 100.

B2: GpH7-A5/GpH7-B3 variant H268_11K/GpL16-k0 (antibody, human IgG1, kappa)
heavy 1: not shown
heavy 2: not shown
light: B1 light
notes: Heterodimerized anti-glypican-3 IgG1; mutation in the GpH7-B3 chain only; also called He Ab H268K
Consider B2, for which, in test [1], the He/Con_1a is 106 relative, GpH7-A5/GpH7-B3/GpL16-k0 = 100. The He/Con_2b in test [2] was 83 relative, GpH7-A5/GpH7-B3/GpL16-k0 = 100.

B3: GpH7-A5/GpH7-B3 variant Y300_10E/GpL16-k0 (antibody, human IgG1, kappa)
heavy 1: not shown
heavy 2: not shown
light: B1 light
notes: He Ab; alteration in one H chain only; also called He Ab
For B3, in test [3], the “He_2aH/2b (IIaH/IIb)” value stood at 0.73 ratio. Further, the He/Con_2b in test [4] is 134 % of control. Moreover, in test [5], the He/Con_2aH is 97.2 % of control.

B4: GpH7-A5/GpH7-B3 variant E269_16H/GpL16-k0 (antibody, human IgG1, kappa)
heavy 1: not shown
heavy 2: not shown
light: B1 light
notes: Heterodimerized anti-glypican-3 IgG1; mutation in the GpH7-B3 chain only; also called He Ab E269H
With B4, in test [1], the He/Con_1a was 106 relative, GpH7-A5/GpH7-B3/GpL16-k0 = 100. The He/Con_2b in test [2] was 38.5 relative, GpH7-A5/GpH7-B3/GpL16-k0 = 100.

B5: GpH7-A5/GpH7-B3 variant E269_18N/GpL16-k0 (antibody, human IgG1, kappa)
heavy 1: not shown
heavy 2: not shown
light: B1 light
notes: Heterodimerized anti-glypican-3 IgG1; mutation in the GpH7-B3 chain only; also called He Ab E269N
For B5, the He/Con_1a in test [1] was 102 relative, GpH7-A5/GpH7-B3/GpL16-k0 = 100. In test [2], the He/Con_2b was 44.8 relative, GpH7-A5/GpH7-B3/GpL16-k0 = 100.

B6: GpH7-A5/GpH7-B3 variant E269_03V/GpL16-k0 (antibody, human IgG1, kappa)
heavy 1: not shown
heavy 2: not shown
light: B1 light
notes: Heterodimerized anti-glypican-3 IgG1; mutation in the GpH7-B3 chain only; also called He Ab E269V
As to B6, the He/Con_1a in test [1] was 103 relative, GpH7-A5/GpH7-B3/GpL16-k0 = 100. Moreover, the He/Con_2b in test [2] is 45.1 relative, GpH7-A5/GpH7-B3/GpL16-k0 = 100.

B7: GpH7-A5/GpH7-B3 variant H268_14T/GpL16-k0 (antibody, human IgG1, kappa)
heavy 1: not shown
heavy 2: not shown
light: B1 light
notes: Heterodimerized anti-glypican-3 IgG1; mutation in the GpH7-B3 chain only; also called He Ab H268T
For the molecule B7, the He/Con_1a in test [1] is 112 relative, GpH7-A5/GpH7-B3/GpL16-k0 = 100. Also, in test [2], the He/Con_2b was 86 relative, GpH7-A5/GpH7-B3/GpL16-k0 = 100.

B8: GpH7-A5/GpH7-B3 variant S267_12R/GpL16-k0 (antibody, human IgG1, kappa)
heavy 1: not shown
heavy 2: not shown
light: B1 light
notes: Heterodimerized anti-glypican-3 IgG1; mutation in the GpH7-B3 chain only; also called He Ab S267R
Consider B8, for which, in test [1], the He/Con_1a is 92.7 relative, GpH7-A5/GpH7-B3/GpL16-k0 = 100. The He/Con_2b in test [2] is 11.3 relative, GpH7-A5/GpH7-B3/GpL16-k0 = 100.

B9: GpH7-A5/GpH7-B3 variant E269_05P/GpL16-k0 (antibody, human IgG1, kappa)
heavy 1: not shown
heavy 2: not shown
light: B1 light
notes: Heterodimerized anti-glypican-3 IgG1; mutation in the GpH7-B3 chain only; also called He Ab E269P
With B9, in test [1], the He/Con_1a was 102 relative, GpH7-A5/GpH7-B3/GpL16-k0 = 100. In test [2], the He/Con_2b is 52.6 relative, GpH7-A5/GpH7-B3/GpL16-k0 = 100.

B10: GpH7-A5/GpH7-B3 variant S298_08L/GpL16-k0 (antibody, human IgG1, kappa)
heavy 1: not shown
heavy 2: not shown
light: B1 light
notes: as for B3
On to B10, for which the “He_2aH/2b (IIaH/IIb)” value in test [3] amounted to 0.78 ratio. Also, in test [4], the He/Con_2b is 108 % of control. Moreover, the He/Con_2aH in test [5] is 85 % of control.

B11: GpH7-A5/GpH7-B3 variant S267_11K/GpL16-k0 (antibody, human IgG1, kappa)
heavy 1: not shown
heavy 2: not shown
light: B1 light
notes: Heterodimerized anti-glypican-3 IgG1; mutation in the GpH7-B3 chain only; also called He Ab S267K
As for B11, the He/Con_1a in test [1] was 93.3 relative, GpH7-A5/GpH7-B3/GpL16-k0 = 100. The He/Con_2b in test [2] is 12.2 relative, GpH7-A5/GpH7-B3/GpL16-k0 = 100.

B12: GpH7-A5/GpH7-B3 variant E269_12R/GpL16-k0 (antibody, human IgG1, kappa)
heavy 1: not shown
heavy 2: not shown
light: B1 light
notes: Heterodimerized anti-glypican-3 IgG1; mutation in the GpH7-B3 chain only; also called He Ab E269R
Turning to B12, the He/Con_1a in test [1] is 97.1 relative, GpH7-A5/GpH7-B3/GpL16-k0 = 100. In addition, in test [2], the He/Con_2b is 25.2 relative, GpH7-A5/GpH7-B3/GpL16-k0 = 100.

B13: GpH7-A5/GpH7-B3 variant E269_06M/GpL16-k0 (antibody, human IgG1, kappa)
heavy 1: not shown
heavy 2: not shown
light: B1 light
notes: Heterodimerized anti-glypican-3 IgG1; mutation in the GpH7-B3 chain only; also called He Ab E269M
Consider B13, for which the He/Con_1a in test [1] is 104 relative, GpH7-A5/GpH7-B3/GpL16-k0 = 100. Besides, the He/Con_2b in test [2] is 46.7 relative, GpH7-A5/GpH7-B3/GpL16-k0 = 100.

B14: GpH7-A5/GpH7-B3 variant S267_04F/GpL16-k0 (antibody, human IgG1, kappa)
heavy 1: not shown
heavy 2: not shown
light: B1 light
notes: Heterodimerized anti-glypican-3 IgG1; mutation in the GpH7-B3 chain only; also called He Ab S267F
B14: in test [1], the He/Con_1a was 97.7 relative, GpH7-A5/GpH7-B3/GpL16-k0 = 100. In addition, the He/Con_2b in test [2] is 48 relative, GpH7-A5/GpH7-B3/GpL16-k0 = 100.

B15: GpH7-A5/GpH7-B3 variant E269_07I/GpL16-k0 (antibody, human IgG1, kappa)
heavy 1: not shown
heavy 2: not shown
light: B1 light
notes: Heterodimerized anti-glypican-3 IgG1; mutation in the GpH7-B3 chain only; also called He Ab E269I
Consider B15, for which, in test [1], the He/Con_1a is 103 relative, GpH7-A5/GpH7-B3/GpL16-k0 = 100. Further, the He/Con_2b in test [2] is 43.9 relative, GpH7-A5/GpH7-B3/GpL16-k0 = 100.

The values above are taken from patent US20150344570A1 (published 2015).
